Usually kcat/Km stands for the turnover number divided by the Michaelis constant. What is called Km is the concentration of substrate that gives half-maximal velocity.

The values that follow come from publication PMC4555173, “Octanoylation of early intermediates of mycobacterial methylglucose lipopolysaccharides” (Scientific Reports, 2015).

Data set [1] has as its target M. tuberculosis OctT (Rv2418c) (Mycobacterium tuberculosis, UniProt P71725).
The target in data set [2] is M. hassiacum OctT (Mycolicibacterium hassiacum, UniProt K5BJH8). Put plainly: CoA release with DTNB at […] nm. The data set is classed as biochemical. The note with it: DGG 20 mM, Oct-CoA 80 μM; product inhibition; enzyme species not given, M. hassiacum inferred from the characterisation.
Substrate in data set [3]: CCCCCC(=O)SCCNC(=O)CCNC(=O)[C@H](O)C(C)(C)COP(=O)(O)OP(=O)(O)OC[C@H]1O[C@@H](n2cnc3c(N)ncnc32)[C@H](O)[C@@H]1OP(=O)(O)O
Put plainly: purified protein. It is filed as biochemical, Mycolicibacterium hassiacum. The note with it: apparent, DGG 20 mM, 50 mM BTP, 37 °C, substrate inhibition above 100 μM.

Substrate in data set [4]: CCCCCCCC(=O)SCCNC(=O)CCNC(=O)[C@H](O)C(C)(C)COP(=O)(O)OP(=O)(O)OC[C@H]1O[C@@H](n2cnc3c(N)ncnc32)[C@H](O)[C@@H]1OP(=O)(O)O
In words: purified protein. It is filed as biochemical, Mycolicibacterium hassiacum. The note with it: apparent, DGG 20 mM, 50 mM BTP, 37 °C, substrate inhibition above 100 μM.

Substrate in data set [5]: O=C(O)[C@@H](CO)O[C@H]1O[C@H](CO)[C@@H](O)[C@H](O)[C@H]1O
Put plainly: purified protein. The note with it: apparent, Oct-CoA 100 μM, 50 mM BTP, 37 °C. It is filed as biochemical, Mycolicibacterium hassiacum.

Substrate in data set [6]: O=C(O)[C@@H](CO)O[C@H]1O[C@H](CO[C@H]2O[C@H](CO)[C@@H](O)[C@H](O)[C@H]2O)[C@@H](O)[C@H](O)[C@H]1O
Put plainly: purified protein. The data set is classed as biochemical, Mycolicibacterium hassiacum. The note with it: apparent, Oct-CoA 100 μM, 50 mM BTP, 37 °C.

Substrate in data set [7]: CCCCCCCC(=O)SCCNC(=O)CCNC(=O)[C@H](O)C(C)(C)COP(=O)(O)OP(=O)(O)OC[C@H]1O[C@@H](n2cnc3c(N)ncnc32)[C@H](O)[C@@H]1OP(=O)(O)O
In words: purified protein. The note with it: apparent, DGG 45 mM, 50 mM BTP, 37 °C, substrate inhibition above 100 μM. The data set is classed as biochemical, Mycolicibacterium smegmatis.

Substrate in data set [8]: O=C(O)[C@@H](CO)O[C@H]1O[C@H](CO)[C@@H](O)[C@H](O)[C@H]1O
In words: purified protein. It is filed as biochemical, Mycolicibacterium smegmatis. The note with it: apparent, Oct-CoA 100 μM, 50 mM BTP, 37 °C.

Substrate in data set [9]: O=C(O)[C@@H](CO)O[C@H]1O[C@H](CO[C@H]2O[C@H](CO)[C@@H](O)[C@H](O)[C@H]2O)[C@@H](O)[C@H](O)[C@H]1O
Put plainly: purified protein. The data set is classed as biochemical, Mycolicibacterium smegmatis. The note with it: apparent, Oct-CoA 100 μM, 50 mM BTP, 37 °C.

Sequence of M. tuberculosis OctT (Rv2418c) (P71725 whole entry): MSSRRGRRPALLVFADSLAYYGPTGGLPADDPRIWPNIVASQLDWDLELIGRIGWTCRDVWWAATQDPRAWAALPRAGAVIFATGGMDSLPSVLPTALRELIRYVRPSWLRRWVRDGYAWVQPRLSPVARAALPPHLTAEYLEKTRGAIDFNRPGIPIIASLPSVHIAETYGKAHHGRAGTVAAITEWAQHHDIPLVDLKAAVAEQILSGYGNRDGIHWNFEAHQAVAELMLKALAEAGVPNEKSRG

Regarding `O=C(O)[C@@H](CO)O[C@H]1O[C@H](CO[C@H]2O[C@H](CO)[C@@H](O)[C@H](O)[C@H]2O)[C@@H](O)[C@H](O)[C@H]1O` [DGG, (2R)-2-O-α-D-glucopyranosyl-(1→6)-α-D-glucopyranosyl-2,3-dihydroxypropanoate], the “preparative conversion, TLC and NMR of product” value in data set [1] was “natural Oct-DGG produced by the M. tuberculosis, M. hassiacum and M. smegmatis recombinant OctT enzymes”.
In the case of `CCCCCCCC(=O)OC[C@H]1O[C@H](OC[C@H]2O[C@H](O[C@H](CO)C(=O)O)[C@H](O)[C@@H](O)[C@@H]2O)[C@H](O)[C@@H](O)[C@@H]1O` [compound 1], the “% loss of activity at 400 μM” value in [2] is 22%.

B1: M. hassiacum OctT (Mycolicibacterium hassiacum DSM 44199) (protein)
chain: MSGRRPTLLVFCDSLSYYGPRGGLPADDPRIWPNIVASQLDWDVELIGRVGWTSRDVWWAATQDPRAWAALPRAGAVIFATGGMDSLPSPLPTALRELIRYIRPPWLRRRVRDLYGWLQPRLSPVSRNALPPHLTAEYLEMTRGAIDFNRPGIPVVAALPSVHIADSYGRAHHGREATARAITEWARQHGVVLVDLKAAVADQVLNGRGNPDGIHWNFEAHQAVAELMLKALAEAGVPCR
B1: the kcat/Km in data set [3] turned out to be 35 ± 10 M⁻¹ s⁻¹; in data set [4], 31.7 ± 6.67 M⁻¹ s⁻¹; in [5] it was 0.05 ± 0.00667 M⁻¹ s⁻¹; in data set [6], 0.167 M⁻¹ s⁻¹. Moreover, the Km in data set [4] was found to be 0.06 ± 0.01 mM; in [5] it was 6.6 ± 0.78 mM; in [6] it was 9.5 ± 0.8 mM.

B2: M. smegmatis OctT (Mycolicibacterium smegmatis MC2 155) (protein)
chain: MSSETSSESTGHRPVLLVFADSLSYFGPTGGLPADDPRIWPNIVGEQLGWDVELIGRIGWTCRDVWWAATQDPRSWAALPRAGAVVFATSGMDSLPSPLPTALREMIRYVRPPWLRRWVRDGYGWVQPRLSPIARSALPPHVTVEYLEMTRNAIDFNRPGIPVVASLPSVHIAETYGRAHHGREPTVRAITAWAEEHHVPLVDLKAAVADEVFGGRGNPDGIHWSFEAHRAVAELMLKGLAEAGVTQRDSAT
As to B2, the figures for the Km in data set [7], in data set [8] and in data set [9] were 0.03 ± 0.01 mM, 19.0 ± 8.6 mM and 20.0 ± 3.6 mM, respectively. Moreover, the kcat/Km in [7] was 1430 ± 483 M⁻¹ s⁻¹; in data set [9] it was 1.83 ± 0.833 M⁻¹ s⁻¹.
